In publication PMC4705692:
Like-named read-outs stand apart in the source and are kept apart here.

B1: GCC ODN (dsDNA)
DNA 1: TATTATTATGCCATTATTATT
DNA 2: AATAATAATGGCATAATAATA
B2: AAT ODN (dsDNA)
DNA 1: TATTATTATATTATTATTATT
DNA 2: AATAATAATAATATAATAATA
B3: GCC ODN azinomycin B-adducted (dsDNA)
DNA 1: TATTATTATGCCATTATTATT
DNA 2: AATAATAATGGCATAATAATA
modifications: azinomycin B interstrand cross-link G-G at the GCC site (mixture with monoadduct possible)
B4: GAT ODN (dsDNA)
DNA 1: TATTATTATGATATTATTATT
DNA 2: AATAATAATATCATAATAATA
B5: GCT ODN (dsDNA)
DNA 1: TATTATTATGCTATTATTATT
DNA 2: AATAATAATAGCATAATAATA

Legend:
Experiment in all cases: EMSA
[1] = molecular target: T1, Orf1 (HTH_42 DNA glycosylase) (Streptomyces sahachiroi ATCC33158, UniProt B4XYC8 1-371)
T1 sequence: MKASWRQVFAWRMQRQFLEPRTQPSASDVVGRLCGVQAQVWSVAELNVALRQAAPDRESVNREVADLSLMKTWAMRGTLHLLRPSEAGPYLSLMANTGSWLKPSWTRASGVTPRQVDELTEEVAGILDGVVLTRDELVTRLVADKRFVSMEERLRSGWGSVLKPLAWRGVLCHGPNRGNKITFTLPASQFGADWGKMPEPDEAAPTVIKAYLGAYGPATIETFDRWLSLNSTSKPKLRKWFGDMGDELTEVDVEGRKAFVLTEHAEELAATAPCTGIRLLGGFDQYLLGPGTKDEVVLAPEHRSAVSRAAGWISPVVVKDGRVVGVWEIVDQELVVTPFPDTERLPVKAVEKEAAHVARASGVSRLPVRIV

[2] = molecular target: T1, Orf1 (HTH_42 DNA glycosylase); remark: listed apart in the source
[3] = molecular target: T1, Orf1 (HTH_42 DNA glycosylase); remark: listed apart in the source

Binder	binding result [2]	also measured
B1		binding result [1]: binds
B2	binds	
B3		binding result [3]: binds
B4	binds	
B5	binds	
